Data on 3 molecules can be found in publication PMC10247930, “The effects of novel macrocyclic chelates on the targeting properties of the ^68Ga-labeled Gastrin releasing peptide receptor antagonist RM2” (EJNMMI Research, 2023).

The nature of the series: in vivo. The arrangement: species or system BALB/c nu/nu mice. Conditions: male, BALB/c nu/nu, mouse, iv, 2.6 MBq, total radioactivity. As for the experimental part:
Biodistribution. BALB/c nu/nu male mice were implanted subcutaneously with 10 million PC-3 tumor cells, freshly expanded in saline. Biodistribution studies were performed 3 to 4 weeks after tumor cell inoculation when the tumor-bearing mice reached an average mass of 20 ± 3 g. Mice were injected with ^68Ga-X-RM2 (100 µL, 2.6 MBq) into the tail vein. The animals were sacrificed at 30, 60, and 120 min post-injection. Then the organs of interest were collected and weighed, and their radioactivity content was measured in a gamma counter.

As for `CC(C)C[C@H](NC(=O)C[C@H](O)[C@H](CC(C)C)NC(=O)[C@H](Cc1c[nH]cn1)NC(=O)CNC(=O)[C@@H](NC(=O)[C@H](C)NC(=O)[C@H](Cc1c[nH]c2ccccc12)NC(=O)[C@H](CCC(N)=O)NC(=O)[C@@H](Cc1ccccc1)NC(=O)CN1CCC(NC(=O)CN2CCN(CC(=O)O)CCN(CC(=O)O)CCN(CC(=O)O)CC2)CC1)C(C)C)C(N)=O` (68Ga complex, metal not drawn) [DOTA-RM2, reference compound], the tissue to tissue ratio at 0.5 h reads like this: (Tumour/blood ratio) 2.35; (Tumour/bone ratio) 11.2; (Tumour/kidneys ratio) 1.53; (Tumour/liver ratio) 3.19; (Tumour/muscle ratio) 14.4. In addition, the tissue to tissue ratio at 1 h by setting is: (Tumour/blood ratio) 3.88; (Tumour/bone ratio) 8.99; (Tumour/kidneys ratio) 1.89; (Tumour/liver ratio) 3.4; (Tumour/muscle ratio) 21.8. Also, the tissue to tissue ratio at 2 h is, setting by setting: (Tumour/blood ratio) 4.58; (Tumour/bone ratio) 8.6; (Tumour/kidneys ratio) 2.05; (Tumour/liver ratio) 4; (Tumour/muscle ratio) 31.7.

For `CC(C)C[C@H](NC(=O)C[C@H](O)[C@H](CC(C)C)NC(=O)[C@H](Cc1c[nH]cn1)NC(=O)CNC(=O)[C@@H](NC(=O)[C@H](C)NC(=O)[C@H](Cc1c[nH]c2ccccc12)NC(=O)[C@H](CCC(N)=O)NC(=O)[C@@H](Cc1ccccc1)NC(=O)CN1CCC(NC(=O)CCCCC2(N(CC(=O)O)CC(=O)O)CN(CC(=O)O)CCN(CC(=O)O)C2)CC1)C(C)C)C(N)=O` [AAZTA^5-RM2], the tissue to tissue ratio at 0.5 h is, setting by setting: (Tumour/blood ratio) 3.53; (Tumour/bone ratio) 21.8; (Tumour/kidneys ratio) 1.2; (Tumour/liver ratio) 6.04; (Tumour/muscle ratio) 10.3. Moreover, the tissue to tissue ratio at 1 h is 8.38 (Tumour/blood ratio); 36 (Tumour/bone ratio); 1.41 (Tumour/kidneys ratio); 7.55 (Tumour/liver ratio); 37.6 (Tumour/muscle ratio). Also, the tissue to tissue ratio at 2 h was found to be 15.6 (Tumour/blood ratio); 57.5 (Tumour/bone ratio); 1.31 (Tumour/kidneys ratio); 5.92 (Tumour/liver ratio); 60.7 (Tumour/muscle ratio).

On to `CC(C)C[C@H](NC(=O)C[C@H](O)[C@H](CC(C)C)NC(=O)[C@H](Cc1c[nH]cn1)NC(=O)CNC(=O)[C@@H](NC(=O)[C@H](C)NC(=O)[C@H](Cc1c[nH]c2ccccc12)NC(=O)[C@H](CCC(N)=O)NC(=O)[C@@H](Cc1ccccc1)NC(=O)CN1CCC(NC(=O)CCCCC2(N(C)CC(=O)O)CN(CC(=O)O)CCN(CC(=O)O)C2)CC1)C(C)C)C(N)=O` [DATA^5m-RM2], for which the tissue to tissue ratio at 0.5 h stood at 4.23 (Tumour/blood ratio); 16.2 (Tumour/bone ratio); 1.73 (Tumour/kidneys ratio); 5.86 (Tumour/liver ratio); 25.4 (Tumour/muscle ratio). The tissue to tissue ratio at 1 h turned out to be 14.6 (Tumour/blood ratio); 29.3 (Tumour/bone ratio); 2.2 (Tumour/kidneys ratio); 7.57 (Tumour/liver ratio); 56.8 (Tumour/muscle ratio). Also, the tissue to tissue ratio at 2 h reads like this: (Tumour/blood ratio) 18.2; (Tumour/bone ratio) 50.2; (Tumour/kidneys ratio) 2.41; (Tumour/liver ratio) 6.09; (Tumour/muscle ratio) 62.2.
